Like-named read-outs stand apart in the source and are kept apart here.

In one experiment the target is Pal (Escherichia coli) (UniProt P0A912). Conditions: cited from earlier work.
Experiment [1] has as its target TolB (E. coli) (UniProt P0A855). In words: SPR. A general note: Surface plasmon resonance follows binding to a sensor surface in real time, without labels.
The target is the same in experiment [2]. The experiment can be described thus: SPR. This is another data set of the same source.
Experiment [3] deals with TolB (Escherichia coli) (UniProt P0A855). Conditions: cited from earlier work.
The target is the same in experiment [4]. Conditions: cited from earlier work. This is another data set of the same source.
For another experiment, the target named is TolB (E. coli, UniProt P0A855 22-430). The experiment can be described thus: SEC. On the technique in general: Size exclusion chromatography separates by hydrodynamic size, large species first.

One may read the Kd as the free concentration of one partner at which half of the binding sites on the other are occupied at equilibrium, for simple one-to-one binding. In the case of TolB (from UniProt P0A855), the dissociation constant (Kd) with Pal (Escherichia coli) is 90 nM.

As for “TA_(1–107), 107-residue peptide of the translocation domain of colicin A (domain or fragment)”, the Kd in the experiment with TolB (E. coli) [1] worked out at 24300 nM; in the experiment with TolB (E. coli) [2], 1600 nM.

With Colicin E9 (from UniProt P09883), the Kd was 1000 nM in the experiment with TolB (Escherichia coli) [3] and 90 nM with TolB (Escherichia coli) [4].

B1: Pal, soluble periplasmic domain (residues 65–173) (domain or fragment, E. coli, UniProt P0A912 65-173, looked up)
chain: LQQNNIVYFDLDKYDIRSDFAQMLDAHANFLRSNPSYKVTVEGHADERGTPEYNISLGERRANAVKMYLQGKGVSADQISIVSYGKEKPAVLGHDEAAYSKNRRAVLVY
On to B1, for which, in the experiment with TolB, the binding result is recorded as “binds”.

The values above are taken from paper PMC2821528 (Molecular Microbiology, 2009).
